The values that follow come from US20220047631A1.

A value given as a limit tells only on which side of the number the result lay.

One test has as its target Glycopeptide. Nature of the test: surface plasmon resonance, Table S3 of Brooks et al. (2010) PNAS drawn on the sheet; per legend paragraph 58 measured for the 237 Fab [C].
In test [1] the target is Tn-glycosylated murine podoplanin on COSMC-mutant cells (murine) (UniProt Q62011). Put plainly: flow cytometry on Ag104A, Jurkat and SKOV3 variants; binding ratio = MFI primary+secondary / MFI secondary alone. In general terms: In flow cytometry, cells or beads pass a laser one at a time.
Chain of Tn-glycosylated murine podoplanin on COSMC-mutant cells (murine) (Q62011 23-172, change not shown): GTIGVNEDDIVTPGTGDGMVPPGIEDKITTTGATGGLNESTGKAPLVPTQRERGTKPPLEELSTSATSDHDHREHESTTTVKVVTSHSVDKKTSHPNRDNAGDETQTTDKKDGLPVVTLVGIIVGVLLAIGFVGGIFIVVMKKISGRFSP

B1: 237mAb Fab (Fab, V domains shown)
VH: QVQLQQSGGGLVQPGGSMKIFCAASGFTFSDAWMDWVRQSPEKGLEWVAEIRNKANNHETYYAESVKGRFTITRDDSKSRMSLQMNSLRAEDTGIYYCSGGKVRNAYWGQGTTVTVSS
VL: DIQLTQSPLSLPVSLGDQASISCRSSQSLVHSNGNTYLHWYLQKPGQSPKLLIYKVSNRFSGVPDRFSGSGSGTDFTLKISSVEAEDLGVYFCSQSTHVPTFGGGTKLEIK
With B1, in the test with Glycopeptide, the koff (usually a measure of how fast the partners let go of each other) amounted to 0.013 s⁻¹ and the on-rate (kon) – broadly, a measure of how fast the partners come together – came out at 94000 M⁻¹ s⁻¹.

B2: 237 monoclonal antibody (antibody, V domains shown)
VH: QVQLQQSGGGLVQPGGSMKIFCAASGFTFSDAWMDWVRQSPEKGLEWVAEIRNKANNHETYYAESVKGRFTITRDDSKSRMSLQMNSLRAEDTGIYYCSGGKVRNAYWGQGTTVTVSS
VL: DIQLTQSPLSLPVSLGDQASISCRSSQSLVHSNGNTYLHWYLQKPGQSPKLLIYKVSNRFSGVPDRFSGSGSGTDFTLKISSVEAEDLGVYFCSQSTHVPTFGGGTKLEIK
In the case of B2, the fold of binding ratio over cells that were PDPN- and/or Cosmc+ in test [1] was over 100 fold.
